This note sets out measurements from article PMC9687920, “Effects of Boric Acid and Storage Temperature on the Analysis of Microalbumin Using Aptasensor-Based Fluorescent Detection”.

The target of this series is human serum albumin (HSA) (Homo sapiens, UniProt P02768 25-609). The experiment in a line: graphene oxide fluorescence recovery (competition with GO quencher); PBS; PBS or PBS with 2% (w/v) boric acid, ambient temperature, 5 mg/L GO stock, 30 min with HSA in the dark; pH not given. The settings on record: protein: commercial; label: 5'-Cy5.
Sequence of human serum albumin (HSA) (P02768 25-609): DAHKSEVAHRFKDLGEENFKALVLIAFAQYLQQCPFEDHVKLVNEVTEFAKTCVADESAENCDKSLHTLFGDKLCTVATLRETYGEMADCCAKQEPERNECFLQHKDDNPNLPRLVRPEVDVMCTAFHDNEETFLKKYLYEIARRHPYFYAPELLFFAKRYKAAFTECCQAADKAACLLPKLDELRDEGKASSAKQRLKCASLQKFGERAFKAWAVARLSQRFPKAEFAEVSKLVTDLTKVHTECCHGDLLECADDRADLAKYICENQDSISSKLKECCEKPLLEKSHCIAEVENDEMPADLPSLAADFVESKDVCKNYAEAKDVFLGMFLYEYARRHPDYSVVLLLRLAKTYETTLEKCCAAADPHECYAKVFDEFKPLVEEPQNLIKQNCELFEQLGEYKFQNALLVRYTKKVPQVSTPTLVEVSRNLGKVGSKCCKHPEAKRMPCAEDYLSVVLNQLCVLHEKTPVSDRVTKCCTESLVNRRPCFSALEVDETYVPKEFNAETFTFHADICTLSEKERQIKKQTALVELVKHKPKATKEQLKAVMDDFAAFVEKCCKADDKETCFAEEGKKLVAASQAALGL

B1: H8 aptamer (ssDNA)
DNA: ATACCAGCTTATTCAATTCCCCCGGCTTTGGTTTAGAGGTAGTTGCTCATTACTTGTACGCTCCGGATGAGATAGTAAGTGCAATCT
For the molecule B1, the binding result is given as “binds”.
